Measurements published in article PMC4569737, “Involvement of a eukaryotic-like ubiquitin-related modifier in the proteasome pathway of the archaeon Sulfolobus acidocaldarius” (Nature Communications, 2015).

B1: Saci0662ΔN, N-terminally truncated Saci0662 β-subunit (without the pro-peptide), His-tagged (domain or fragment, S. acidocaldarius, UniProt Q4JAY3 7-195, looked up)
chain: TAIGIKTKDGVVLAAERRLSYGDFVLSKSARKVFKLGRFGIAGAGIVGDIQTLTRIMNVEIKYYEMYNSRKISARAAAKLLSVILYQNKVLPYISELLFGGVDEDGPKLFILDPIGSLIEDSYAAVGSGARVAIGVLEAEYNESLTSEAAKELAIKSMKSAVERDVMSGDGIDILIINKNNIYEDFIKI
notes: source: E. coli Rosetta (DE3) pLysS, co-expressed with Saci0613 (with or without Saci0909ΔN); in heat-clarified lysate, and purified as part of the complex (Ni-NTA IMAC, size exclusion chromatography); not shown: His tag, C-terminal, kept
B2: Saci0613 20S proteasome α-subunit, untagged (natural protein, S. acidocaldarius, UniProt Q4JB24 1-242, looked up)
chain: MALGPAAMGYDRAITIFSPDGSLYQVDYAFEAVKRGWTTLGVKTKSGVVLLAEKRKATQLLDVDGIEKIFMLDDHVGCTFAGLASDGRILIDYARSQALQHRLIYDEPISIEYLTKVISDVKQAYTQHGGVRPFGVALIVGGIDKGKQPKLLMTEPSGQFMPYYAVAIGQGGYTATEYLEKNYKEDLDIQSTILLALRALMATLKPGEKLNYSSVEIGYADVDSGTFKKLTTEERSDLLQKI
notes: 20S proteasome α-subunit, S. acidocaldarius DSM639, Saci0613; also called Saci0613 α; 0613 α-subunit; source: E. coli Rosetta (DE3) pLysS, co-expressed with β-subunit(s); in heat-clarified lysate, and purified as part of the complex (Ni-NTA IMAC, size exclusion chromatography)
B3: Saci0656 PAN (proteasome-activating nucleotidase) regulatory ATPase of S. acidocaldarius (enzyme, UniProt F2Z6H9 1-396, looked up)
chain: MFGDVDSYKNRENNNNYDETLVKLLEEKIEALTKEIDKLRQDLNWYKTELEKLLAPPYIEATILDILPDGKVIVRSSSGPNLVVNVATNVDVSKLKPGMSVALSQRGSTIIDILPNREDIIVKSFELIEKPNIHYSDIGGLEDQINELREVVELPLKNKKLFEELGIEPPKGVLLYGPPGTGKTMLAKAVAAESNATFIHVVASEFAQKFVGEGARIVREVFELARKKAPSIIFIDELDAIAARRIDIGTSGEREIQRTLMQLLAEIDGFKALDNVKIIAATNRIDILDPAILRPGRFDRLIEVPLPDEKGRKEIFKIYLQRMRINENDKLNYDLIAQLTDGFSGADIKNVCTEAGYMAIREGRESIKFQDIIRAIDKIKKKNLRKAINTRTEKYL
notes: ORF amplified from genomic DNA; also called PAN ATPase; PAN regulatory ATPase; source: E. coli Rosetta (DE3) pLysS, purified (details in the Supplementary Methods)

Key:
[1] = biological target: the molecule itself; experiment: negative-stain transmission electron microscopy; purified 20S complexes at 0.035 mg/ml on carbon-coated grids, 2% uranyl acetate
[2] = biological target: the molecule itself; experiment: SEC-MALS; 100 μl protein complex at 2 mg/ml, Superdex 200 10/300 Increase GL, 20 mM Tris (pH 8.0), 300 mM NaCl, 25 °C

Row | Protein | binding result [1] | stoichiometry N [2]
1 | B1 | binds | 
2 | B2 | binds | 
3 | B3 |  | 6
